The values below come from patent publication US20020168358A1, “Treatment of T-cell mediated diseases” (priority 2001, published 2002).

As a reminder, the IC50 is the concentration that gives 50% inhibition.

One experiment has as its target T1, CCR7 (Homo sapiens, UniProt P32248).
T1 construct: The cells were then disrupted with a Polytron homogenizer and centrifuged at 30,000× g for 10 min; endogenous in cells; host or cells: HUT-78 cells (membrane pellet)
T1 sequence (P32248 25-378): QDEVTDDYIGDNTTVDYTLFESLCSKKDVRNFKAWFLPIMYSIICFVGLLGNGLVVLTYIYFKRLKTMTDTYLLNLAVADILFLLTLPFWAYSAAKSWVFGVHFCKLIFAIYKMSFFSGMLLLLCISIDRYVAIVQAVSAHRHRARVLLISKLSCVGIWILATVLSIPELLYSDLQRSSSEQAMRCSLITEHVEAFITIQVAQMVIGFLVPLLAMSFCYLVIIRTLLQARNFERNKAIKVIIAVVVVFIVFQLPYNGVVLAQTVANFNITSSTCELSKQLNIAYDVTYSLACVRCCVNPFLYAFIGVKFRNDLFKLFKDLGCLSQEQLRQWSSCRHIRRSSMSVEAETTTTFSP
The experiment can be described thus: Binding assay: 125I-MIP-3β binding to HUT-78 cell membranes (scintillation proximity). As to conditions: binding assay of Example 1, HUT-78 membranes, read-out: IC50, inhibition of binding of MIP-3β to CCR7. On the procedure: HUT-78 cells were cultured in RPMI media with 10% FBS, pen-strep (100 u/ml), L-glutamine (2 mM), HEPES (10 mM) and non-essential amino acids (0.1 mM). The cells were collected by centrifugation at 170× g for 5 min and resuspended to 50×10^ 6 cells/ml in Dulbeccoco's Ca^2+ and Mg^2+ free media containing 8 mg/l aprotinin at 4° C. The cells were then disrupted with a Polytron homogenizer and centrifuged at 30,000× g for 10 min. The pellet was washed 6 times and stored at −80° C.
The binding assay was run in a buffer containing HEPES (50 mM), CaCl2 (1 mM), MgCl2 (5 mM), NaCl (150 mM) and BSA (0.5 mg/ml), pH 7.2. The pellet was resuspended to 8×10^6 cell equivalents/ml and 50 μl was added to microtiter plate wells containing 130 μl of buffer with various concentrations of compounds, and 0.5 mg PEI-treated wheatgerm agglutinin-coated scintillation proximity beads (Amersham). The binding was initiated by the addition of 20 μl of 600 pM ^125I-MIP-3β (New England Nuclear). The microtiter plate was mixed and then the beads were allowed to settle overnight before counting in a Microbeta plus liquid scintillation counter (Wallac).
On the technique in general: SPA uses beads or plates that emit light when radiolabelled molecules are held near them.

Experiment [1] concerns PHA-activated human T cells. In words: In vitro chemotaxis of T cells (48-well Boyden chamber). Particulars: for effect on T cell chemotaxis compared with other chemokines: Hut 78 and primary T cells; for chemoattractant activity for PHA-activated human T cells: FIG. 3. It is filed as cell-based. On the procedure:
Lymphocyte and PHA blast chemotaxis to appropriate chemokine was measured using a 48-well Boyden chamber (Neuro Probe Inc., Cabin John, Md.). Agonists were diluted in RPMI media (BioWhittaker, Walkersville, Md.) containing 0.1% bovine serum albumin (Invitrogen, Carlsbad, Calif.) and added to the bottom wells of the chemotaxis chamber. Peripheral mononuclear blood cells were resuspended in RPMI/BSA media at a concentration of 2.5×10^6 cells per ml. Fifty μl of this cell suspension was then added to the upper chamber. A 5 μm PVP-free polycarbonate filter, coated on the bottom with 10 microgram/ml of human type IV collagen (Neuro Probe Inc.), was used to separate the wells of the chamber Chambers were incubated for 60 minutes in a 5% CO2-humidified atmosphere at 37° C. After the incubation period, the filters were removed, the top side was scraped to remove non-migrating cells, and the filters were stained with Diff-Quik stain (Dade Behring AG, Dudingen, Switzerland). The number of PMBC cells migrating was counted by light microscopy. The mean of three high powered fields was then determined. The number of migrating PMBC cells was calculated by subtracting […].

For the next experiment, the system named is Hut-78 cells. In words: In vitro chemotaxis of Hut-78 cells. As to conditions: FIG. 2. It is filed as cell-based.

Consider `O=S1(=O)COc2cc(NCCCc3cnco3)ccc2N1` [Example 3], for which the IC50 at CCR7 is 1.5 µM.

As to `Cc1cc(C)c2c(=O)n(CC(O)CN(C)CC3OCCCO3)sc2c1` (stereo not drawn) [Example 4], the IC50 at CCR7 worked out at 2.2 µM.

Take “IP-10: chemokine tested for comparison in T cell chemotaxis”: the “effect on T cell chemotaxis compared with other chemokines” value (from here on “effect … compared with other chemokines”) in experiment [1] is on record as “minimal effects”.

“MCP-1: chemokine tested for comparison in T cell chemotaxis”: the “effect … compared with other chemokines” value in experiment [1] is reported as “minimal effects”.

For the molecule “MCP-3: chemokine tested for comparison in T cell chemotaxis”, the “effect … compared with other chemokines” value in experiment [1] is “minimal effects”.

B1: RANTES: chemokine tested for comparison in T cell chemotaxis (protein, UniProt P13501 24-91, looked up)
C-C motif chemokine 5: SPYSSDTTPCCFAYIARPLPRAHIKEYFYTSGKCSNPAVVFVTRKNRQVCANPEKKWVREYINSLEMS
Turning to B1, the “effect … compared with other chemokines” value in experiment [1] is on record as “minimal effects”.

B2: MIP-3β: chemokine, macrophage inflammatory protein-3b, ligand of the CCR7 receptor (protein, UniProt Q99731 22-98, looked up)
C-C motif chemokine 19: GTNDAEDCCLSVTQKPIPGYIVRNFHYLLIKDGCRVPAVVFTTLRGRQLCAPPDQPWVERIIQRLQRTSAKMKRRSS
For the molecule B2, in experiment [1], the “chemoattractant activity for PHA-activated human T cells” value is on record as “potent chemoattractants” and the “effect … compared with other chemokines” value is given as “most potent T cell chemotactic agents”. The “chemoattractant activity for Hut-78 cells” value in the experiment with Hut-78 cells is “potent chemoattractants”.

B3: SLC: secondary lymphoid organ chemokine, ligand of the CCR7 receptor (protein, UniProt O00585 24-134, looked up)
C-C motif chemokine 21: SDGGAQDCCLKYSQRKIPAKVVRSYRKQEPSLGCSIPAILFLPRKRSQAELCADPKELWVQQLMQHLDKTPSPQKPAQGCRKDRGASKTGKKGKGSKGCKRTERSQTPKGP
With B3, in experiment [1], the “chemoattractant activity for PHA-activated human T cells” value is recorded as “potent chemoattractants” and the “effect … compared with other chemokines” value was “most potent T cell chemotactic agents”. Also, the “chemoattractant activity for Hut-78 cells” value in the experiment with Hut-78 cells was “potent chemoattractants”.

B4: Tarc: chemokine tested for comparison in T cell chemotaxis (protein, UniProt Q92583 24-94, looked up)
C-C motif chemokine 17: ARGTNVGRECCLEYFKGAIPLRKLKTWYQTSEDCSRDAIVFVTVQGRAICSDPNNKRVKNAVKYLQSLERS
With B4, in experiment [1], the “effect … compared with other chemokines” value is given as “minimal effects”.

B5: MIP-1α: chemokine tested for comparison in T cell chemotaxis (protein, UniProt P10147 24-92, looked up)
C-C motif chemokine 3: SLAADTPTACCFSYTSRQIPQNFIADYFETSSQCSKPGVIFLTKRSRQVCADPSEEWVQKYVSDLELSA
Take B5: the “effect … compared with other chemokines” value in experiment [1] is given as “minimal effects”.

B6: MIP-1β: chemokine tested for comparison in T cell chemotaxis (protein, UniProt P13236 24-92, looked up)
C-C motif chemokine 4: APMGSDPPTACCFSYTARKLPRNFVVDYYETSSLCSQPAVVFQTKRSKQVCADPSESWVQEYVYDLELN
Take B6: the “effect … compared with other chemokines” value in experiment [1] is “minimal effects”.
